The source of these data is patent US20240029824A1 (University of Washington, published 2024).

Where a chain is given by its changes, count along the chain named.

In test [1] the target is T1, DHT03_variant_ABC-2 chain B.
T1 chain: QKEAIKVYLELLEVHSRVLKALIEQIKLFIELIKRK
Description: native MS; loop-connectivity variant of DHT03, chains of one ABC heterotrimer.

Test [2] deals with T2, DHT03_variant_ABC-2 chain C.
T2 chain: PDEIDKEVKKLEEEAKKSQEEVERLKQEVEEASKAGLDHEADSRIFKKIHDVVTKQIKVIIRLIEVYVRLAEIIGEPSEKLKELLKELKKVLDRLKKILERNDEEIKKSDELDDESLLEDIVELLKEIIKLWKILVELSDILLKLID
The test is described as above.

Test [3] has as its target T3, DHT03 chain C (SEQ ID NO: 59).
T3 chain: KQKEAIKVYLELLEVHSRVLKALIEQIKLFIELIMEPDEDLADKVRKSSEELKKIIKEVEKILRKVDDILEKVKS
Description: tricistronic expression, SEC, native MS; chains of one ABC heterotrimer. The source says: Genes encoding 85 heterotrimers in a tricistronic expression vector were obtained, and the proteins were expressed in E. coli and purified via IMAC with only one chain having the 6×His-tag. Nine of the designs (FIG. 3a) had monodisperse SEC peaks (FIG. 3b), were almost exclusively ABC by nMS, and had good SAXS fits to the design models (Table 7). […] Eight of the designs are parallel heterotrimers, while DHTO9 is an antiparallel heterotrimer. […] For 3 other designs, only the ABC heterotrimer was determined to form by nMS (when the respective SEC fraction was analyzed) but the heterotrimer SEC peak was preceded by soluble aggregate that would make building with these constructs difficult downstream. We explored the dependence of cooperativity on connectivity between the three chains by changing the positions of the loops across different helices in DHT03, while keeping the rest of the interface intact. […] The ability to sustain alternate loop closures increases the number of heteromeric building blocks available for future nanostructure assembly applications and may enable rigid fusion of functional domains to the different termini available.
Samples were analyzed by online buffer exchange native mass spectrometry (nMS) to evaluate sample purity and accurately determine oligomeric states⁴². […]

Test [4] deals with T4, DHT03_variant_ABCD-1 chain D.
T4 chain: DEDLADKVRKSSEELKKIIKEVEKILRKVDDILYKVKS
Description: native MS; loop-connectivity variant of DHT03, chains of one ABCD heterotetramer.

Test [5] deals with T5, DHT03_2arm_A21/Bt18/C chain B.
T5 chain: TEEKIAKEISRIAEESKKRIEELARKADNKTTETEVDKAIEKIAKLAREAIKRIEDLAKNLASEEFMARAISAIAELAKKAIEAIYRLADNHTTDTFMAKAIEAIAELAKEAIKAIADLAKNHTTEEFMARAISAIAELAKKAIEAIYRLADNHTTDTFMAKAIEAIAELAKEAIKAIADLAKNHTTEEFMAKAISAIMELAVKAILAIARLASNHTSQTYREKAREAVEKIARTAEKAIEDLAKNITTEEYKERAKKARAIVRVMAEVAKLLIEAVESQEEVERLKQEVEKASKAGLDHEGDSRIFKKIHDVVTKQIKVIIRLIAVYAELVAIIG
As to the kind of experiment: co-expression, SEC, native MS, SAXS; chains of one ABC heterotrimer.

The target in test [6] is T6, DHT03_2arm_A21/B62/C chain B.
T6 chain: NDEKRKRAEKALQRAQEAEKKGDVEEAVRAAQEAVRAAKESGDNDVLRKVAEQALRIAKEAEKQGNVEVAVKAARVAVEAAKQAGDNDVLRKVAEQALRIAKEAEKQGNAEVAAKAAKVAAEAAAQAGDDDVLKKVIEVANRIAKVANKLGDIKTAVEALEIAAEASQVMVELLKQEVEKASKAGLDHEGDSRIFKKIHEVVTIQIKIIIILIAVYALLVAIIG
The test is described as above.

For test [7], the target named is T7, DHT03 chain C (SEQ ID NO: 65).
T7 chain: T3 chain with K28L, M35V, E36R, E71Y
The test is described as above.

Test [8] addresses T8, DHT03_2arm_A21/B14/C chain B.
T8 chain: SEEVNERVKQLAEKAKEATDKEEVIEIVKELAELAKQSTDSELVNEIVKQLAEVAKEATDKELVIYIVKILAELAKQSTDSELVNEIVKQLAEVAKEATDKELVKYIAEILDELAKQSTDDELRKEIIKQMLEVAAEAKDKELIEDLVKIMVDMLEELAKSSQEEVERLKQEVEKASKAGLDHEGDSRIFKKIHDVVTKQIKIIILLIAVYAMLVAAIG
The description is as above.

Test [9] addresses T3, DHT03 chain C (SEQ ID NO: 59). As to the kind of experiment: X-ray crystal structure, 3.35 A. The method, then: Purified DHT03_2arm_A21/B21/C (long) protein at a concentration of 41 mg/mL was used to conduct sitting drop, vapor-diffusion crystallization trials using the JCSG Core I-IV screens (NeXtal Biotechnologies). Crystals of DHT03_2arm_A21/B21/C long grew from drops consisting of 100 nL protein plus 100 nL of a reservoir solution consisting of 2M (NH4)2SO4, 0.1M sodium acetate pH4.6 at 18° C., and were cryoprotected by supplementing the reservoir solution with 2.2M sodium malonate pH5. Native diffraction data was collected at APS beamline APS-23-ID-B, indexed to P1 and reduced using XDS⁴⁸. The structure was phased by molecular replacement using Phaser™. The chain A of a set of ˜49 lowest energy predicted models from Rosetta™ were used as search models. Several of these models gave clear solutions. Chain B and Chain C were fitted manually in Coot™ and rigid body refinement by Phenix™. The following model building and refinement were done by Coot™ and Phenix™.

Test [10] has as its target T9, DHT03_2arm_A21/B21/C long chain B.
T9 chain: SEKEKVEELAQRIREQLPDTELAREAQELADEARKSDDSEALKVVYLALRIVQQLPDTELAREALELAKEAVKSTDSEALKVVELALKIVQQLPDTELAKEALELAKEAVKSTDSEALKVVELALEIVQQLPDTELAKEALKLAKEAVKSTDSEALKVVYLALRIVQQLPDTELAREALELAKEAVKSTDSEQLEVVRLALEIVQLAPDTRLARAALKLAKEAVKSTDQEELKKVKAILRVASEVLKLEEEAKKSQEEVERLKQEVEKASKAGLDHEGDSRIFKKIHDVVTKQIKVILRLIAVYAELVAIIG
As to the kind of experiment: co-expression, SEC, native MS, SAXS; chains of one ABC heterotrimer.

Turning to HEELADEVRKSSEELKKIIEEVEKILRKVDDILYKVG (designed binder) [DHT03_variant_ABC-2 chain A], the binding result in test [1] and in test [2] was “binds” in each case.

B1: DHT03 chain A (designed binder)
chain: PEEEKLKELLKELKKVLDRLKKILERNDEEIKKSDELDDESLLEDIVELLKEIIKLWKILVELSDILLKLIS
As for B1, the binding result in [3] and in test [4] was “binds” in each case.

B2: DHT03 A21 fusion chain A (SEQ ID NO: 63) (designed binder)
chain: SEKEKVEELAQRIREQLPDTELAREAQELADEARKSDDSEALKVVYLALRIVQQLPDTELAREALELAKEAVKSTDSEALKVVYLALRIVQQLPDTELARLALELAKKAVEMTAQEVLEIAKAALKAAQAFPNTELAELMLRLAEVAARVMKELERNDEEIKKSDELDDESLLEDIVELLKEIIKLWKILVEVSDVMLKLIS
In the case of B2, the binding result in [5], in test [6] and in test [7] was “binds” each time.

B3: DHT03 A21 fusion chain A (SEQ ID NO: 66) (designed binder)
chain: B2 chain with E119A
Take B3: the binding result in test [8] is given as “binds”.

B4: DHT03_2arm_A21/B21/C long chain A (designed binder)
chain: SEKEKVEELAQRIREQLPDTELAREAQELADEARKSDDSEALKVVYLALRIVQQLPDTELAREALELAKEAVKSTDSEALKVVELALKIVQQLPDTELAKEALKLAKEAVKSTDSEALKVVELALEIVQQLPDTELAKEALELAEEAVKSTDSEALKVVKLALEIVQQLPDTELAREALELAKEAVKSTDSEALKVVYLALRIVQQLPDTELARLALELAKKAVEMTAQEVLEIARAALKAAQAFPNTELAELMLRLAEVAARVMKELERNDEEIKKSDELDDESLLEDIVELLKEIIKLWKILVEVSDVMLKLIS
B4: the binding result in test [9] and in test [10] was “binds” throughout.
